Measured values: patent US20260241035A1, “FUNCTIONAL NUCLEIC ACID MOLECULE AND METHOD” (THE UNIVERSITY COURT OF THE UNIVERSITY OF EDINBURGH, priority 2022, published 2026)

B1: ID4035: enhancer fragment, SEQ ID NO: 29 (nucleic acid)
DNA: CCCAGACTGCCATCTCCACGGCCCCCACACCAGCACACAGATGCCTCATTCACGTGGTGCTCCCAGGGCCTGGCACCAGTTCTGAGGCTTAAAATAGGCACACAACGGGCCTTTGTCGGATAGAGGAAGGAAGGAAGGAGCGTTTCAGACAAAGGAGACA
B2: ID2082: enhancer fragment, SEQ ID NO: 28 (nucleic acid)
DNA: ACAGAAGCCGTTGCTGCAGTAACCACTGCCGCAAGAGCAACTTTGGCAGCAGGCAGGTGCCAGGCAGCAAGCTGAGAGAACACTGACAGATTCAAAGTGTCTTCAGATACAAGGCTTTGTTTGTGCACAGTGAACAAAGGGCATATTGGGAAGGCCTCC
B3: ID0403-2: enhancer fragment, SEQ ID NO: 33 (nucleic acid)
DNA: ATGTTAAACAGTGAAATCATCAGCAAAAAGCACAAAACTGCAGAAAACATGGCACTAAATAGAACACAAAAAGGACACTTGTTTACAGTATGAGAGCAGAAACAAGGAAACAGTGTTTCCTTGTTCAGCCACAGCTGGGACCTTGTGTGT
B4: ID4431: enhancer fragment, SEQ ID NO: 35 (nucleic acid)
DNA: AAATGGTGATTATCATCATTTGTTCAGGGACATTAGCATGAAGGCCGAATGTTCTGGCACAAAGACACGTCTGTGGGACAGGCAC
modifications: listed as DNA, chemistry not given here
B5: ID3499: enhancer fragment, SEQ ID NO: 36 (nucleic acid)
DNA: AAGAATGAACTGGGCCCAGCTGGGCATTTGCATCAAAGTGCCTCACCAGAGTTCCCAGCTGCTCTGGCAGAGTGCCCAGGCTTGCCCCAGAGCCCAAACAGAATGCTCTTTGAGATGCCTCTGGTTTTCA
modifications: listed as DNA, chemistry not given here
B6: ID0403-1: enhancer fragment, SEQ ID NO: 32 (nucleic acid)
DNA: TGCCTCTCTTCCATTGGCATTGGAGTGGCTATAGGCCTTTGGAGGACCTGGCAAAGGGGAAGTTGATTTAGGGGTTCATTGAATTGAGGGGAAGTATGTAAGTGGTTTGCAGTCACTTCCTTGTGTGGTACTCTTGTATAGTAATGATTTCCTGGAATA
B7: ID1667: enhancer fragment, SEQ ID NO: 30 (nucleic acid)
DNA: ACCCTTTGCAGAGAGGAAAGAGAAAGGAGGTCTCCTGTTGGGGAGATCTGCTTTAGAGGTTAGGAAGAATGGTGGAGTTGTAAGACATTGGAATCACTGTCTAGGAAGGACAGTGGCCTTTTATCCAGGGCTATTTAAAAACAGACAGAGCTTCATCTAT
B8: ID2816: enhancer fragment, SEQ ID NO: 31 (nucleic acid)
DNA: TTCCTGCATCTGGCCCTCTTTGAGAGCCCCTTGTGTGCCAATGACAAACCCTTCTTTATTTAAGCTCCTCTGAAGTGCCTTCCTGGTCTTGGCAGCTGGACAGGGCCCTGAATAAGACAGCGAGCCTCAATGGCAGGCTACCCCAGGGCTGGGTGACGTA

Tested on: GSC7 cells
Test: Nano-Glo Dual-Luciferase Reporter (Nanoglo DLR) assay of enhancer activity, fold change to mCMV
Assay type: cell-based, human
Conditions: expression fold change of the individual enhancer compared to mCMV
Text: We chose an arrayed library format, with 160 bp enhancer fragments individually cloned into separate plasmids and arrayed in 96 well plates. These 160 bp were synthesized as a single pool of oligos, then randomly cloned into the plasmid and isolated. 20 bp×2 were needed for PCR amplification of the pool and so a library of 200 bp fragments was synthesized (Twist Biosciences). To meet our oligo synthesis strategy, ChIP-seq peaks expressed by GSCs were merged into a single oligo. This oligonucleotide pool was PCR-amplified (using limited cycles to reduce bias and ‘jackpot’ products meaning products which are easier to amplify will overtake the oligonucleotide pool) and cloned into the expression vector by an efficient Golden Gate reaction. 4579 individual plasmids were then randomly picked, isolated and plated as an arrayed plasmid DNA library on 96 well plates (×48). The bacterial colony picking and production of plasmid minipreps were supported by the Edinburgh Genome Foundry (S. Rosser). This library was then screened using the optimised Nanoglo DLR assay (Nano-Glo Dual-Luciferase Reporter Assay, Promega) in 384 well format. Each plate was transiently transfected together with PGK-FFLuc in a 1:10 ratio into GSC7 cells. 2 days later a Nanoglo DLR assay was performed and assayed on a plate reader.
Cells were seeded in 384 well plates using a multidrop and transfected the following day using the CyBio Felix. Two days later the experiment was terminated with a Nanoglo DLR assay and all hits with a fold change to mCMV greater than 10 were Sanger sequenced and mapped back to the genome.
Cells were seeded at the required density. The following day the transfection was carried out. For this the Plus reagent and Lipofectamine LTX (Life Technologies, 15338030) were each diluted in half the volume of Opti-MEM I Reduced-Serum Medium (further referred to as Optimem) (Life Technologies, 31985062). Following this step, the Plus reagent/Optimem premix was added to all DNA samples followed by the Lipofectamine LTX/Optimem premix. The transfection mix was incubated for 5 min at room temperature and then carefully dropped on the cells. Generally, no media change was carried out. Cells were analysed two days following transfection.
This assay consists of two steps. The transfection was carried out using a normalisation plasmid PGK-Firefly-Luciferase (Promega, E5011) that was transfected in a 1/10 ratio with the plasmid of interest. First, the Firefly Luciferase activity is measured which allows to normalise to transfection efficiency. In a second step, the activity of Nanoluc is determined which is the readout of the plasmid of interest. Cells were washed 3× with PBS and 20 μl was left in the 96 well plate after the final wash (25 μl in 384 well). Oneglo buffer was added and the plate was shaken for 5 min at 480 rpm to allow cell lysis. 20 μl cell lysate in 96 well format or 25 μl cell lysate in 384 well format was then transferred into the corresponding opaque white plate and luminescence was measured at for 0.1 s per well using the Ensight Multimode Plate Reader. For the following Nanoluc reaction in a 96 well format 2 μl cell lysate was transferred into an opaque white plate containing 40 μl PBS, and 20 μl Stopglo buffer, supplemented with substrate, was added to each well. In a 384 well format 20 μl Stopglo buffer containing substrate were added on top of the undiluted cell lysate. The plate was shaken again for 5 min at 480 rpm to quench the firefly luciferase reaction and ensure good mixing. Nanoluc activity was measured for 0.1 s per well, again using Ensight Multimode Plate Reader.
Data obtained by the Nanoluc reaction was normalised to Firefly reaction to account for well-to-well variability of transfection efficiency. Normalised data were used to calculate the fold change to the empty vector control mCMV.

Molecule | Fold change (Median) [fold]
B1 | 26.2
B2 | 26.4
B3 | 24.9
B4 | 21.2
B5 | 20.7
B6 | 24.9
B7 | 25.2
B8 | 25.1
